In paper PMC10132440:

Tests used:
[1] = target: PN45428 TCR-CD3, strep-tagged, detergent-solubilized (SPR reagent) (humanized VelociT mouse | not stated) (UniProt P07766); assay: SPR; settings: peptide-MHC
[2] = target: PN45545 TCR-CD3, strep-tagged, detergent-solubilized (SPR reagent) (humanized VelociT mouse | not stated) (UniProt P07766); assay: SPR; settings: peptide-MHC

| Substance | Kd [1] [µM] | Kd [2] [µM] |
| --- | --- | --- |
| single-chain disulfide-stabilized MAGEA8 (232-241) pMHC (from UniProt P61769 21-119) | 260 | 420 |
| single-chain disulfide-stabilized MAGEA4 (230-239) pMHC (from UniProt P61769 21-119) | – | 6.1 |
